Values of other authors, collected in article PMC6128780.

Molecular target: Fibronectin (Homo sapiens) (UniProt P02751)
Sequence of UniProt P02751 (P02751 32-2477): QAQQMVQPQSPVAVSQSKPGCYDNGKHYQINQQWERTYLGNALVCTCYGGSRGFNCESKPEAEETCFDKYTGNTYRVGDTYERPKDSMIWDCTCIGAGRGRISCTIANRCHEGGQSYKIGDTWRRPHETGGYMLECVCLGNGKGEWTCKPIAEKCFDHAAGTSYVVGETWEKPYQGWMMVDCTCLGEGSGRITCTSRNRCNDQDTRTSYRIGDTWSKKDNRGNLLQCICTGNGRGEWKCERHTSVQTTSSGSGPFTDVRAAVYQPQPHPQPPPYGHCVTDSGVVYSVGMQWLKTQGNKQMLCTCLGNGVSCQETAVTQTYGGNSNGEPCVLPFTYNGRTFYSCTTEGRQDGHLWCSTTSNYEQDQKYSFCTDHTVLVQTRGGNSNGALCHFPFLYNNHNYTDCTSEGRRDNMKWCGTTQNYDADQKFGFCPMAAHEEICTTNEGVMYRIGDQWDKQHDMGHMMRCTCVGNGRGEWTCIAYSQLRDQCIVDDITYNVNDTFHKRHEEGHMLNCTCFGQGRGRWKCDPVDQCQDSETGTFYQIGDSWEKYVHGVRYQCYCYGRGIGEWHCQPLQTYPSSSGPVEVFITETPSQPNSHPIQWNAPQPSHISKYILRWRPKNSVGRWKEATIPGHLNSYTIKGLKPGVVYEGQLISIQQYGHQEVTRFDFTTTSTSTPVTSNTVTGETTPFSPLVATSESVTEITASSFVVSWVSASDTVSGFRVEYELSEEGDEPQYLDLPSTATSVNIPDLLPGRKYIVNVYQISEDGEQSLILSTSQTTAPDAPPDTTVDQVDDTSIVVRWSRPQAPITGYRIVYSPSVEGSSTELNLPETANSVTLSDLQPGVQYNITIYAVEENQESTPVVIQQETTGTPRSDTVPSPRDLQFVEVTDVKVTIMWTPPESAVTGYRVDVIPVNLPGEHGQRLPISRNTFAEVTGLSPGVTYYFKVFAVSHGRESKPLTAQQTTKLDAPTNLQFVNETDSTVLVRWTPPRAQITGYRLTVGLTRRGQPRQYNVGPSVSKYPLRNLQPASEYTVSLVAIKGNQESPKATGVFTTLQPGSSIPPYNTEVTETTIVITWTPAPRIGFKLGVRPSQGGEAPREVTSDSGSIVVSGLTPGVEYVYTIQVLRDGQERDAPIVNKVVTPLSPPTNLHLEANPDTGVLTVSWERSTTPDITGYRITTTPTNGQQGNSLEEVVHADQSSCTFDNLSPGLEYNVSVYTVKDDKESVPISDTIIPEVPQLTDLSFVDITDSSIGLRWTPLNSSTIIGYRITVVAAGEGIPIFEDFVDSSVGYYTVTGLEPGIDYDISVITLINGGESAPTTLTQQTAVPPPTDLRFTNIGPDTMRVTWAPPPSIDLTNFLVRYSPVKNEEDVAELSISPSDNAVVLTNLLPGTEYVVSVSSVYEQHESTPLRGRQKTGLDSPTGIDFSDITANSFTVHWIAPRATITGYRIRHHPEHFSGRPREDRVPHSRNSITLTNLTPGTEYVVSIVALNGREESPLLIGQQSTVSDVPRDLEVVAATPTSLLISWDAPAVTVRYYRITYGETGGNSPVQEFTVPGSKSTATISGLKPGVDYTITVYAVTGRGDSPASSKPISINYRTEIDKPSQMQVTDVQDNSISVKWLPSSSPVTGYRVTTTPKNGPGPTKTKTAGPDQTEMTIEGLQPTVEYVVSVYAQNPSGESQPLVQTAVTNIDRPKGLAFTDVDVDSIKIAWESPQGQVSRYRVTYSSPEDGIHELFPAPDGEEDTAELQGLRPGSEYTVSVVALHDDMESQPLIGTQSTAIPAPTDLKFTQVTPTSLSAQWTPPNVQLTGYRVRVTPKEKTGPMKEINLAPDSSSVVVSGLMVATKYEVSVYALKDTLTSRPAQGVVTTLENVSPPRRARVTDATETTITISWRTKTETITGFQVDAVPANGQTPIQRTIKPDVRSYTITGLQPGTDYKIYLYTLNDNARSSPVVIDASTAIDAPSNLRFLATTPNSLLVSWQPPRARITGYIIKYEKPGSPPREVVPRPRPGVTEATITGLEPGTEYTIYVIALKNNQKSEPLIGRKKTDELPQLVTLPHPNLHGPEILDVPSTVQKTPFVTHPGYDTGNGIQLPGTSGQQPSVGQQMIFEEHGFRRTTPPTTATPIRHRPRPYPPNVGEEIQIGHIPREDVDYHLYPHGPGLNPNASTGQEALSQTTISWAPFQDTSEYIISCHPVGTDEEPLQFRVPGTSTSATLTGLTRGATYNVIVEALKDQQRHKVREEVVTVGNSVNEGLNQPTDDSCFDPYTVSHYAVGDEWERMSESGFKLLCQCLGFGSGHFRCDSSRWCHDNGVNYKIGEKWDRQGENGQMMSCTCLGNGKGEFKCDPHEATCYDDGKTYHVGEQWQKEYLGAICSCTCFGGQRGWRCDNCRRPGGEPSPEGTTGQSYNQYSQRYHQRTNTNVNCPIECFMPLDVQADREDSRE

Substance: Carcinoembryonic antigen (CEA) IgV-like N domain (from UniProt P06731)
- Kd: 16 nM
